The target of assay [1] is T1, wild-type NRP-1 expressed on transiently transfected M21 melanoma cells (UniProt O14786 22-923).
T1 construct: whole, on cells; the printed SKET at 346-349 fits human NRP-1; also called wild type NRP-1 cDNA in pcDNA3.1(+)
In words: phage incubated with M21 cells transiently transfected with NRP-1, immunostaining and confocal imaging.

For assay [2], the target named is T2, triple mutant S346A-E348A-T349A NRP-1 expressed on transiently transfected M21 melanoma cells (UniProt O14786 22-923, limits assumed).
T2 construct: whole, on cells; The stated codon change SKET to AKAA gives T349A; also called Mutant NRP-1
The assay is described as follows: phage binding to transiently transfected M21 melanoma cells, titration.

T1 sequence (O14786 22-923 limits assumed): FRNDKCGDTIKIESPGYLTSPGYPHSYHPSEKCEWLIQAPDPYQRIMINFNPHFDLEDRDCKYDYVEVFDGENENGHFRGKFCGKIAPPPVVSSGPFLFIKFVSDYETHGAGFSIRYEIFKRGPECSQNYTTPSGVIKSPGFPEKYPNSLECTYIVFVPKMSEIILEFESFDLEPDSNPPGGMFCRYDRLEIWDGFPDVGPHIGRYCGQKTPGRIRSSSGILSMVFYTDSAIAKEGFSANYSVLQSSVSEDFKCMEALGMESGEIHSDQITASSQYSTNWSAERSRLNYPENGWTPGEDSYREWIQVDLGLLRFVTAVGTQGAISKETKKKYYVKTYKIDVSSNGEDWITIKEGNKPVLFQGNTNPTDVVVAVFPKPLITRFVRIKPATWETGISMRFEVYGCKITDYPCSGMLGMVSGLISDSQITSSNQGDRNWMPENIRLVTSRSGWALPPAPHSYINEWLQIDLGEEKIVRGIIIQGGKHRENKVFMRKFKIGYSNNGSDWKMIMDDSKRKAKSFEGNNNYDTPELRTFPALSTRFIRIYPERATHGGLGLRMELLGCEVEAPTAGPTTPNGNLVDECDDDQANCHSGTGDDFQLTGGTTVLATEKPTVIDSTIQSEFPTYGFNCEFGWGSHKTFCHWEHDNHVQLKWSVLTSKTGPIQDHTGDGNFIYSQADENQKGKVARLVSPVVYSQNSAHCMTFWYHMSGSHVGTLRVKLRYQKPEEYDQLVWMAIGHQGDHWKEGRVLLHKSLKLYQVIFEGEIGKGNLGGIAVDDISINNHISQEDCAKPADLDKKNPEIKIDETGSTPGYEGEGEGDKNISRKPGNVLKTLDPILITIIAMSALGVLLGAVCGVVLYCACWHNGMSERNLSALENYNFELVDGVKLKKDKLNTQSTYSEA

B1: T7 phage displaying RPARPARA (SEQ ID NO:3) (peptide)
chain: RPARPARA
notes: not shown: T7 bacteriophage major coat protein gp10 (T7-select display system); Limits
Take B1: the binding result in assay [1] is “no binding”.

B2: T7 phage displaying RPARPAR (SEQ ID NO:2) (peptide)
chain: RPARPAR
notes: also called RPARPAR phage; RPARPAR T7; not shown: T7 bacteriophage major coat protein gp10 (T7-select display system); Limits
As to B2, the binding result in assay [2] is “no binding”.

Values taken from patent US20090226372A1 (SANFORD BURNHAM MEDICAL RESEARCH INSTITUTE, published 2009).
